T1: CD123 Protein, His Tag, Acro Biosciences Cat. No. ILA-H52H6 (Homo sapiens (Human), UniProt P26951 19-305)
T1 construct: Bought protein; not shown: His tag
T1 sequence: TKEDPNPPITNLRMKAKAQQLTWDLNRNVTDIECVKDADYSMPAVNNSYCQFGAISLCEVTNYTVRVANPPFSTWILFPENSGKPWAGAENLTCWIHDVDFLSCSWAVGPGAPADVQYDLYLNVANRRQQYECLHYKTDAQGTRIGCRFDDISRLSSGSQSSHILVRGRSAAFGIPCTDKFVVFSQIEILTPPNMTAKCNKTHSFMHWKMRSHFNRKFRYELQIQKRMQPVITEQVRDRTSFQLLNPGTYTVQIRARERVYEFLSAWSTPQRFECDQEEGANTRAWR


Molecular target: T1, CD123 Protein, His Tag, Acro …
Experiment: BLI, IgG on anti-human Fc sensor, 50 nM CD123, pH 7.4 and pH 5.4
Source text: We selected IMGN632 (Heavy chain SEQ ID NO: 1, Light chain SEQ ID NO: 2) as a CD123-binding monoclonal antibody for pH engineering via histidine scanning. Briefly, CDRs in the heavy chain were identified using the methods described by Kabat et al (Kabat et al. (1992) Sequences of Proteins of Immunological Interest, DIANE publishing) and IMGT (Lefranc M P (1999) “The IMGT unique numbering for Immunoglobulins, T cell receptors and Ig-like domains” The Immunologist 7, 132-136), and for each CDR, residues falling under either or both Kabat and IMGT CDR definitions were called as CDR residues. To generate pH-dependent sequence variants, individual amino acid residues within the heavy chain CDRs were systematically substituted with a histidine, one at a time (MYT1252-MYT1292). In cases where the starting CDR residue was a histidine, it was mutated to an alanine. Antibody variants with only one histidine or alanine mutation in a heavy chain CDR were generated by co-transfection of Expi293 cells with a) one heavy chain sequence variant, and b) the corresponding starting ABPC light chain using methods known to the art. After allowing for four days of protein expression, cell culture supernatants were collected, quantified by SDS-PAGE analysis (FIG. 1), and the pH dependence of the variant was evaluated using biolayer interferometry (BLI) on an Octet RED 384 instrument. For constructs MYT1252, MYT1254-MYT1287, and MYT1289-1292, 104, of cell culture supernatant was diluted into 1904, of 1× PBST pH 7.4. For MYT1253 and MYT1288 254, and 504, of cell culture supernatant was diluted into 1754, and 1504, respectively. […] The resulting diluted supernatants were then captured on an anti-human Fc sensor (Forte Bio). A baseline was established using 1× PBST (50 mM Potassium Phosphate Buffer+150 mM NaCl+0.05% Tween 20) pH 7.4, and the sensor was associated with 50 nM of CD123 (CD123 Protein, His Tag, Acro Biosciences Cat. No. ILA-H52H6, Lot No. 1741d-89CF1-KB) in 1×PBST pH 7.4 for 120 sec to generate an association curve. In the dissociation phase, the antibody-antigen complex on the sensor was exposed to 1× PBST pH 7.4 for 300-600 sec. Baseline, association, and dissociation were repeated using 1×PBST pH 5.4 throughout in a separate condition.

Row | binding result | Binder
1 | binds | MYT1288 (antibody, V domains shown, IgG) VH: QVQLVQSGAEVKKPGASVKVSCKASGYIFTSSIMHWVRQAPGQGLEWIGYIKPYNDGTKYNEKFKGRATLTSDRSTSTAYMELSSLRSEDTAVYYCAREGGNDYYHTMDYWGQGTLVTVSS VL: DIQMTQSPSSLSASVGDRVTITCRASQDINSYLSWFQQKPGKAPKTLIYRVNRLVDGVPSRFSGSGSGNDYTLTISSLQPEDFATYYCLQYDAFPYTFGQGTKVEIK
2 | binds | MYT1290 (antibody, V domains shown, IgG) VH: QVQLVQSGAEVKKPGASVKVSCKASGYIFTSSIMHWVRQAPGQGLEWIGYIKPYNDGTKYNEKFKGRATLTSDRSTSTAYMELSSLRSEDTAVYYCAREGGNDYYDTHDYWGQGTLVTVSS VL: DIQMTQSPSSLSASVGDRVTITCRASQDINSYLSWFQQKPGKAPKTLIYRVNRLVDGVPSRFSGSGSGNDYTLTISSLQPEDFATYYCLQYDAFPYTFGQGTKVEIK
3 | binds | MYT2755 (antibody, V domains shown, IgG) VH: QVQLVQSGAEVKKPGASVKVSCKASGHIFTSSIMHWVRQAPGQGLEWIGYIKPYNDGTKYNEKFKGRATLTSDRSTSTAYMELSSLRSEDTAVYYCAREGGNDYYDHMDYWGQGTLVTVSS VL: DIQMTQSPSSLSASVGDRVTITCRASQDINSYLSWFQQKPGKAPKTLIYRVNRLVDGVPSRFSGSGSGNDYTLTISSLQPEDFATYYCLQYDAFPYTFGQGTKVEIK
4 | binds | MYT2753 (antibody, V domains shown, IgG) VH: QVQLVQSGAEVKKPGASVKVSCKASGHIFTSSIMAWVRQAPGQGLEWIGYIKPYNDGTKYNEKFKGRATLTSDRSTSTAYMELSSLRSEDTAVYYCAREGGNDYYDTMDYWGQGTLVTVSS VL: DIQMTQSPSSLSASVGDRVTITCRASQDINSYLSWFQQKPGKAPKTLIYRVNRLVDGVPSRFSGSGSGNDYTLTISSLQPEDFATYYCLQYDAFPYTFGQGTKVEIK
5 | binds | MYT1292 (antibody, V domains shown, IgG) VH: QVQLVQSGAEVKKPGASVKVSCKASGYIFTSSIMHWVRQAPGQGLEWIGYIKPYNDGTKYNEKFKGRATLTSDRSTSTAYMELSSLRSEDTAVYYCAREGGNDYYDTMDHWGQGTLVTVSS VL: DIQMTQSPSSLSASVGDRVTITCRASQDINSYLSWFQQKPGKAPKTLIYRVNRLVDGVPSRFSGSGSGNDYTLTISSLQPEDFATYYCLQYDAFPYTFGQGTKVEIK
6 | binds | MYT1289 (antibody, V domains shown, IgG) VH: QVQLVQSGAEVKKPGASVKVSCKASGYIFTSSIMHWVRQAPGQGLEWIGYIKPYNDGTKYNEKFKGRATLTSDRSTSTAYMELSSLRSEDTAVYYCAREGGNDYYDHMDYWGQGTLVTVSS VL: DIQMTQSPSSLSASVGDRVTITCRASQDINSYLSWFQQKPGKAPKTLIYRVNRLVDGVPSRFSGSGSGNDYTLTISSLQPEDFATYYCLQYDAFPYTFGQGTKVEIK
7 | binds | MYT1291 (antibody, V domains shown, IgG) VH: QVQLVQSGAEVKKPGASVKVSCKASGYIFTSSIMHWVRQAPGQGLEWIGYIKPYNDGTKYNEKFKGRATLTSDRSTSTAYMELSSLRSEDTAVYYCAREGGNDYYDTMHYWGQGTLVTVSS VL: DIQMTQSPSSLSASVGDRVTITCRASQDINSYLSWFQQKPGKAPKTLIYRVNRLVDGVPSRFSGSGSGNDYTLTISSLQPEDFATYYCLQYDAFPYTFGQGTKVEIK
8 | binds | MYT2754 (antibody, V domains shown, IgG) VH: QVQLVQSGAEVKKPGASVKVSCKASGHIFTSSIMHWVRQAPGQGLEWIGYIKPYNDGTKYNEKFKGRATLTSDRSTSTAYMELSSLRSEDTAVYYCAREGGNDYHDTMDYWGQGTLVTVSS VL: DIQMTQSPSSLSASVGDRVTITCRASQDINSYLSWFQQKPGKAPKTLIYRVNRLVDGVPSRFSGSGSGNDYTLTISSLQPEDFATYYCLQYDAFPYTFGQGTKVEIK
